Laboratory results: the supplement of paper PMC9112550, “Optimization of the antimicrobial peptide Bac7 by deep mutational scanning” (BMC Biology, 2022)

system: Escherichia coli TOP10; assay: shrunken log2 fold change of peptide-encoding DNA abundance (4.5 h post-induction vs induction); higher = less antimicrobial activity (less host growth inhibition); details: time post-induction: 4.5 h; library: site-saturation at positions 5, 18, 19, 20
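Further: peptides expressed intracellularly from a pBAD plasmid library in pooled LB shake-flask culture, induced with 0.3% L-arabinose, DNA abundance read by NGS, three biological replicates, DESeq2 with apeglm shrinkage.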

| Sequence | shrunken log2 fold change |
| --- | --- |
| RRIRHRPPRLPRPRPRPLGPPRP | 0.191 |
| RRIRHRPPRLPRPRPRPLHMPRP | -0.0732 |
| RRIRHRPPRLPRPRPRPLHRPRP | -0.158 |
| RRIRHRPPRLPRPRPRPLHSPRP | -0.151 |
| RRIRHRPPRLPRPRPRPLHTPRP | 0.143 |
| RRIRHRPPRLPRPRPRPLIWPRP | -0.538 |
| RRIRHRPPRLPRPRPRPLKLPRP | 0.0187 |
| RRIRHRPPRLPRPRPRPLKQPRP | -0.128 |
| RRIRHRPPRLPRPRPRPLKSPRP | -0.178 |
| RRIRHRPPRLPRPRPRPLKVPRP | 0.0138 |
| RRIRHRPPRLPRPRPRPLKWPRP | -0.0708 |
| RRIRHRPPRLPRPRPRPLLKPRP | -0.013 |
| RRIRHRPPRLPRPRPRPLLRPRP | 0.0548 |
| RRIRHRPPRLPRPRPRPLNEPRP | -0.124 |
| RRIRHRPPRLPRPRPRPLNMPRP | -1.26 |
| RRIRHRPPRLPRPRPRPLNNPRP | -0.684 |
| RRIRHRPPRLPRPRPRPLPIPRP | -0.598 |
| RRIRHRPPRLPRPRPRPLRCPRP | 0.0647 |
| RRIRHRPPRLPRPRPRPLSFPRP | -0.137 |
| RRIRHRPPRLPRPRPRPLSIPRP | -0.326 |
| RRIRHRPPRLPRPRPRPLSRPRP | 0.172 |
| RRIRHRPPRLPRPRPRPLWVPRP | -0.142 |
| RRIRHRPPRLPRPRPRPLWYPRP | -0.923 |
| RRIRHRPPRLPRPRPRPLYNPRP | -0.459 |
| RRIRHRPPRLPRPRPRPLYVPRP | -0.272 |

| Sequence | shrunken log2 fold change |
| --- | --- |
| RRIRHRPPRLPRPRPRPMAIPRP | 0.0143 |
| RRIRHRPPRLPRPRPRPMDCPRP | -0.0499 |
| RRIRHRPPRLPRPRPRPMDKPRP | -0.123 |
| RRIRHRPPRLPRPRPRPMDWPRP | -0.177 |
| RRIRHRPPRLPRPRPRPMECPRP | -0.427 |
| RRIRHRPPRLPRPRPRPMFDPRP | 0.108 |
| RRIRHRPPRLPRPRPRPMFYPRP | -0.446 |
| RRIRHRPPRLPRPRPRPMHPPRP | -0.193 |
| RRIRHRPPRLPRPRPRPMITPRP | -0.658 |
| RRIRHRPPRLPRPRPRPMLEPRP | 0.0721 |
| RRIRHRPPRLPRPRPRPMNFPRP | -0.0483 |
| RRIRHRPPRLPRPRPRPMPGPRP | -0.0235 |
| RRIRHRPPRLPRPRPRPMQHPRP | 0.0685 |
| RRIRHRPPRLPRPRPRPMTHPRP | -0.235 |
| RRIRHRPPRLPRPRPRPMVAPRP | 0.195 |
| RRIRHRPPRLPRPRPRPMWGPRP | -0.234 |
| RRIRHRPPRLPRPRPRPMWSPRP | -0.209 |
| RRIRHRPPRLPRPRPRPMWYPRP | -0.0997 |
| RRIRHRPPRLPRPRPRPMYNPRP | -0.833 |
| RRIRHRPPRLPRPRPRPNACPRP | -0.0122 |
| RRIRHRPPRLPRPRPRPNAMPRP | -0.0505 |
| RRIRHRPPRLPRPRPRPNARPRP | -0.0163 |
| RRIRHRPPRLPRPRPRPNCEPRP | -0.0369 |
| RRIRHRPPRLPRPRPRPNCRPRP | -0.0986 |
| RRIRHRPPRLPRPRPRPNDPPRP | -0.246 |

| Sequence | shrunken log2 fold change |
| --- | --- |
| RRIRHRPPRLPRPRPRPNDVPRP | -0.0131 |
| RRIRHRPPRLPRPRPRPNESPRP | -0.506 |
| RRIRHRPPRLPRPRPRPNFHPRP | -0.407 |
| RRIRHRPPRLPRPRPRPNHLPRP | -0.0856 |
| RRIRHRPPRLPRPRPRPNHTPRP | -1.04 |
| RRIRHRPPRLPRPRPRPNIVPRP | -0.0257 |
| RRIRHRPPRLPRPRPRPNIYPRP | -0.11 |
| RRIRHRPPRLPRPRPRPNLQPRP | -0.0526 |
| RRIRHRPPRLPRPRPRPNLYPRP | -0.012 |
| RRIRHRPPRLPRPRPRPNMWPRP | -0.799 |
| RRIRHRPPRLPRPRPRPNNAPRP | -0.11 |
| RRIRHRPPRLPRPRPRPNNEPRP | -0.724 |
| RRIRHRPPRLPRPRPRPNNHPRP | -0.915 |
| RRIRHRPPRLPRPRPRPNPCPRP | -0.132 |
| RRIRHRPPRLPRPRPRPNPIPRP | -0.023 |
| RRIRHRPPRLPRPRPRPNREPRP | -0.107 |
| RRIRHRPPRLPRPRPRPNRLPRP | 0.0234 |
| RRIRHRPPRLPRPRPRPNSVPRP | -0.00436 |
| RRIRHRPPRLPRPRPRPNWLPRP | -0.165 |
| RRIRHRPPRLPRPRPRPNYAPRP | 0.0414 |
| RRIRHRPPRLPRPRPRPPADPRP | 0.492 |
| RRIRHRPPRLPRPRPRPPAWPRP | 0.0414 |
| RRIRHRPPRLPRPRPRPPCCPRP | -0.0551 |
| RRIRHRPPRLPRPRPRPPCLPRP | -0.0439 |
| RRIRHRPPRLPRPRPRPPDDPRP | 0.256 |
